Our source for the binding signal values is article PMC11088704, “Structural basis for the regulation of plant transcription factor WRKY33 by the VQ protein SIB1” (Communications Biology, 2024).

The target in data set [1] is WRKY33_C;SIB1mini (Arabidopsis thaliana;Arabidopsis …, UniProt Q8S8P5;Q9LDH1 345-422;46-69, |). Description: EMSA; SIB1mini present; Kd not fittable; EMSA: NMR buffer (composition not given in material) with 100 mM NaCl, 1.0 ng dsDNA in 20 ul, room temperature 20 min, SIB1:WRKY33_C 2:1; gel in 0.5x TBE, GelRed stain. The note with it: tags: C-terminal 6xHis;; copies: 1;1; blunt. For orientation: A gel shift assay detects complexes by their altered migration in electrophoresis.

Data set [2] has as its target WRKY33_C;SIB1 (SIB1 11-100) (Arabidopsis thaliana;Arabidopsis …, UniProt Q8S8P5;Q9LDH1 345-422;11-100, |). Description: EMSA; SIB1:WRKY33_C 2:1; ternary complex; Kd not fittable; EMSA: NMR buffer (composition not given in material) with 100 mM NaCl, 1.0 ng dsDNA in 20 ul, room temperature 20 min, SIB1:WRKY33_C 2:1; gel in 0.5x TBE, GelRed stain. The note with it: protein: recombinant;recombinant; tags: C-terminal 6xHis;C-terminal 6xHis; copies: 1;1; blunt.

WRKY33_C;SIB1 (SIB1 11-100), sequence (Q8S8P5 345-422, chain 1 of 2): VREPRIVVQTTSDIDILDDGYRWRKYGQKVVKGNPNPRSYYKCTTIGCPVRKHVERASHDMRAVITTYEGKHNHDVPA
WRKY33_C;SIB1 (SIB1 11-100), sequence (Q9LDH1 11-100, chain 2 of 2): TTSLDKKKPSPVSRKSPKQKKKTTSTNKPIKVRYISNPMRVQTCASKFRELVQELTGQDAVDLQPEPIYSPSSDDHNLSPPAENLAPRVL
WRKY33_C;SIB1mini, sequence (Q8S8P5 345-422, chain 1 of 2): as the sequence (Q8S8P5 345-422, chain 1 of 2) above
WRKY33_C;SIB1mini, sequence (Q9LDH1 46-69, chain 2 of 2): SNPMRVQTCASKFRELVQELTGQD

B1: W-box DNA (dsDNA)
DNA 1: AAAGTTGACCAA
DNA 2: TTGGTCAACTTT
For the molecule B1, the binding signal was ~95 % DNA bound at 1:1 molar ratio (WRKY33 alone ~80%) in data set [1] and ~95 % DNA bound at 1:1 molar ratio (WRKY33_C alone ~80%) in data set [2].
